Assay [1] deals with T1, murine ACC-α (acetyl-Coenzyme-A carboxylase, α form), endogenous protein of murine cell lysates (murine, UniProt Q5SWU9 1-2345). In words: GST co-sedimentation on NIH3T3 lysate.
The target in assay [2] is T1, murine ACC-α (acetyl-Coenzyme-A …). Kind of assay: GST co-sedimentation, Western blot with streptavidin-peroxidase. Here is the method: (§1) The proteins for fusion with GST were synthesised in Escherichia coli, strain JM 109 (Promega) transformed with pGEX-4T-1, pGEX-BRCT, pGEX-BRCT A, pGEX-BRCT B, pGEX-BRCT L, pGEX-BRCT M or pGEX-BRCTh as well as the mutated forms of BRCTh (A1708E, P1749R, M1775R, R1835X and Y1853X). They were purified by affinity chromatography on Glutathione-Sepharose. The test of binding by co-sedimentation was carried out in vitro by incubating cellular lysates in the presence of non-recombinant GST proteins or GST fusion proteins and Glutathione-Sepharose beads. 10 μg of GST or fusion GST were used in each binding test. The protein complexes were carefully washed (50 mM Tris HCl pH 7.6, 100 mM KCl, 0.05% Tween 20, 1 mM DTT, 0.2 mM PMSF) to eliminate the non-specific protein interactions and released by heating at 100° C. in loading buffer 5× SDS-PAGE and 100 mM DTT. The proteins were analysed by SDS-PAGE and visualised by autoradiography, staining with silver (Bio-Rad SilverStain) or staining with Coomassie blue according to the nature of the lysate used
In order to map the domain of interaction of ACC-α on the BRCT tandem of Brca1, co-sedimentation tests with six distinct fusion proteins were carried out. The protein complexes of co-sedimentation were resolved by SDS-PAGE and visualised by Western Blot. The ACC protein containing the biotin was detected using peroxidase coupled with streptavidin, and as streptavidin has a high affinity for biotin it is therefore a very sensitive probe for detecting ACC-α (Witters, L. A. et al, 1994). […] However, the fragment GST-BRCT A which lacks the sequences of the domain B of BRCT is incapable of combining with ACC-α.
(In western blotting, separated proteins are transferred to a membrane and probed.)

Assay [3] shares this target. In words: GST co-sedimentation in a lysate of murine fibroblasts.
Text: The inventors have shown that the tandem of the two BRCT domains was necessary and sufficient for the formation of this complex. Moreover, the inventors have shown that the formation of this complex was conserved in the human cells, using a GST-human BRCT fusion protein in co-sedimentation experiments similar to those cited above.
as §1

For assay [4] the target is unchanged. In words: GST co-sedimentation with the mutated tandem. Here is the method: as §1
Numerous familial mutations have been found in the carboxy-terminal segment of BRCA1. One of these, R1835X, localised in the distal domain of BRCT, introduces a non-sense codon which suppresses the last 29 amino acids of Brca1 and thus breaks the second BRCT domain. […]

B1: GST-BRCTh (GST fusion with the human form of the BRCT tandem of BRCA1) (other)
chain: TASTERVNKRMSMVVSGLTPEEFMLVYKFARKHHITLTNLITEETTHVVMKTDAEFVCERTLKYFLGIAGGKWVVSYFWVTQSIKERKMLNEHDFEVRGDVVNGRNHQGPKRARESQDRKIFRGLEICCYGPFTNMPTDQLEWMVQLCGASVVKELSSFTLGTGVHPIVVVQPDAWTEDNGFHAIGQMCEAPVVTREWVLDSVALYQCQELDTYLIPQIPHSHY
notes: also called GST-human BRCT fusion protein; human BRCT tandem; not shown: glutathione S-transferase (GST) encoded by the pGEX vector
As for B1, the binding result in assay [1] was “binds”.

B2: GST-Brca1 N (GST fusion containing the 220 N-terminal residues of murine Brca1) (other)
chain: MDLSAVQIQEVQNVLHAMQKILECPICLELIKEPVSTKCDHIFCKFCMLKLLNQKKGPSQCPLCKNEITKRSLQGSTRFSQLAEELLRIMAAFELDTGMQLTNGFSFSKKRNNSCERLNEEASIIQSVGYRNRVRRLPQVEPGNATLKDSLGVQLSNLGIVRSVKKNRQTQPRKKSVYIELDSDSSEETVTKPGDCSVRDQELLQTAPQEAGDEGKLHSA
notes: also called GST fusion protein expressing the 220 amino-terminal residues of the murine Brca1 protein; not shown: glutathione S-transferase (GST); the vector for this construct is not described
Consider B2, for which the binding result in assay [2] is recorded as “no binding (tested: 10 µg of fusion GST per binding test)”.

B3: GST-BRCT B (GST fusion with the second BRCT module of murine Brca1 alone) (other)
chain: REKLFKGLQVYCCEPFTNMPKDELERMLQLCGASVVKELPSLTHDTGAHLVVIVQPSAWTEDSNCPDIGQLCKARLVMWDWVLDSLSSYRCRGLDAYLVQNITCDSSEPQDSND
notes: also called BRCT B module alone; pGEX-BRCT B product; not shown: GST carrier and vector linker of pGEX-4T-1 at the N end
Take B3: in assay [2], the binding result is “no binding (tested: 10 µg of fusion GST per binding test)”.

B4: GST-BRCT (GST fusion protein containing amino acids 1583 to 1812 of murine Brca1) (other)
chain: TSSEERADRDISMVVSGLTPKEVMTVQKFAEKYRLTLTDAITEETTHVIIKTDAEFVCERTLKYFLGIAGGKWIVSYSWVVRSIQERRLLNVHEFEVKGDVVTGRNHQGPRRSRESREKLFKGLQVYCCEPFTNMPKDELERMLQLCGASVVKELPSLTHDTGAHLVVIVQPSAWTEDSNCPDIGQLCKARLVMWDWVLDSLSSYRCRGLDAYLVQNITCDSSEPQDSND
notes: Made in E. coli and held on glutathione-Sepharose beads; also called murine BRCT tandem; BRCT tandem of Brca1; not shown: glutathione S-transferase (GST) encoded by pGEX-4T-1 (Amersham Pharmacia Biotech)
Consider B4, for which, in assay [3], the binding result was “binds”.

B5: GST-BRCT M (GST-BRCT of murine Brca1 with the non-sense mutation W1777X) (other)
chain: TSSEERADRDISMVVSGLTPKEVMTVQKFAEKYRLTLTDAITEETTHVIIKTDAEFVCERTLKYFLGIAGGKWIVSYSWVVRSIQERRLLNVHEFEVKGDVVTGRNHQGPRRSRESREKLFKGLQVYCCEPFTNMPKDELERMLQLCGASVVKELPSLTHDTGAHLVVIVQPSAWTEDSNCPDIGQLCKARLVM
notes: also called mutated tandem; pGEX-BRCT M product; not shown: GST carrier and vector linker of pGEX-4T-1 at the N end
As to B5, in assay [4], the binding result is reported as “no binding (tested: 10 µg of fusion GST per binding test)”.

B6: GST-BRCT A (GST fusion with the first BRCT module of murine Brca1 alone) (other)
chain: TSSEERADRDISMVVSGLTPKEVMTVQKFAEKYRLTLTDAITEETTHVIIKTDAEFVCERTLKYFLGIAGGKWIVSYSWVVRSIQERRLLNVHEFEVKGDVVTGRNHQGPRRSRESREKLFKG
notes: It uses the same forward primer as GST-BRCT, so it probably starts at residue 1583; also called BRCT A module alone; pGEX-BRCT A product; not shown: GST carrier and vector linker of pGEX-4T-1 at the N end
For the molecule B6, in assay [2], the binding result was “no binding (tested: 10 µg of fusion GST per binding test)”.

B7: GST-BRCT L (GST fusion containing residues 1512-1812 of murine Brca1) (other)
chain: EGTPYLGSGISLFSSRDPESESPKEPAHIGTTPASTSALKIPQGQVAFRSAAAAGADKAVVGIVSKIKPELTSSEERADRDISMVVSGLTPKEVMTVQKFAEKYRLTLTDAITEETTHVIIKTDAEFVCERTLKYFLGIAGGKWIVSYSWVVRSIQERRLLNVHEFEVKGDVVTGRNHQGPRRSRESREKLFKGLQVYCCEPFTNMPKDELERMLQLCGASVVKELPSLTHDTGAHLVVIVQPSAWTEDSNCPDIGQLCKARLVMWDWVLDSLSSYRCRGLDAYLVQNITCDSSEPQDSND
notes: also called longer form of the murine BRCT domain; pGEX-BRCT L product; not shown: glutathione S-transferase (GST) encoded by pGEX-4T-1
Consider B7, for which the binding result in assay [2] is “binds”.
